Data as given in patent publication US6284879A, “Transport associated protein splice variants” (The General Hospital Corporation, priority 1998, dated 2001).
“Also recorded” adds a separate entry of the source.

How the values were obtained:
[1] = system: TAP1/TAP2iso heterodimer (compared with TAP1/TAP2); assay: translocation of 125I-labeled peptides into the ER of permeabilized T2 transfectants; format: cell-based, human; settings: 125I-labeled glycosylated peptide recovered from streptolysin O permeabilized T2 transfectants; comparison in words
Protocol: 10 mM stock solutions of peptides were prepared in dimethyl sulfoxide. Peptides (25 μg) were directly iodinated at unique tyrosine residues with the use of chloramine T (Sigma, St. Louis, Mo.), and free iodine was removed by gel filtration using Sephadex G 10 (Pharmacia) column chromatography.
(§1) Glycosylated ^125 I Peptide […] (SEQ ID NO: 6), Peptide […] (SEQ ID NO: 7), or Peptide […] (SEQ ID NO: 8) was recovered and measured. The peptide translocation assay was performed essentially as previously described (Neefjes et al., Science, 261:769 (1993); and Momburg et al., J. Exp. Med., 179:1613 (1994)). Briefly, 2.5-5.0×10^6 T2 cell (transfected or untransfected) were washed once with incubation buffer (130 mM KCl, 10 mM NaCl, 1 mM CaC2, 2 mM EDTA, 2 mM MgCl2, 5 mM Hepes, pH 7.3) and permeabilized for 10 minutes at 37° C. with streptolysin O (2 IU/ml) (Wellcome, Beckenham, UK) in 50 μl of incubation buffer. After further addition of 10 μl of 100 mM adenosine triphosphate, 10 μl of ^125 I-labeled peptide (~15 pM), and 30 μl of incubation buffer, cells were incubated for an additional 10 minutes at 37° C. Transport was terminated by the addition of 1 ml of 1% NP-40 detergent, after which nuclei were removed by centrifugation and glycosylated peptides were recovered using concanavalin A-Sepharose (Sigma, St. Louis, Mo.) and quantitated with a gamma counter (LKB-Wallac).

[2] = target: T1, TAP1/TAP2 heterodimer (Homo sapiens, UniProt Q03518+Q03519); assay: competition with transport of 125I-Peptide RRYQNSTEL in TAP1/TAP2 transfectants; format: cell-based
T1 sequence (Q03518 1-748): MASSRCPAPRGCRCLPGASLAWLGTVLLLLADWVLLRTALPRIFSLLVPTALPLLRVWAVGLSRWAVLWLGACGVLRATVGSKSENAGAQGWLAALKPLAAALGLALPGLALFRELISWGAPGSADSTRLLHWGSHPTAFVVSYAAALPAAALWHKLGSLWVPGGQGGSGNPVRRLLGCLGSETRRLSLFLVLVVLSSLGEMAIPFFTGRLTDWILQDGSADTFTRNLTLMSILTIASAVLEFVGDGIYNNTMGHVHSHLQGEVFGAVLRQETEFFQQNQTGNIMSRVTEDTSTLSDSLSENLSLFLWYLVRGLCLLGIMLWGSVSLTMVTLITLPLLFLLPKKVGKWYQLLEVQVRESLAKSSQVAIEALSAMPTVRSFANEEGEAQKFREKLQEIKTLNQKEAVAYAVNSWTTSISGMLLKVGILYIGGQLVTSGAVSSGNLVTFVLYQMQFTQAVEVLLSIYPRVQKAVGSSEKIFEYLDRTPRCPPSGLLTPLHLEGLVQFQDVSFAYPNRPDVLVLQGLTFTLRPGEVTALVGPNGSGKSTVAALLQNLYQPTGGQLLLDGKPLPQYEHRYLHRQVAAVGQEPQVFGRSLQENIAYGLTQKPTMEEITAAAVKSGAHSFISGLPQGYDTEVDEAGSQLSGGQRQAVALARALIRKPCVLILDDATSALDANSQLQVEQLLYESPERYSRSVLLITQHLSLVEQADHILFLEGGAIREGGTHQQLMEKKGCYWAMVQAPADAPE
T1 sequence (Q03519 1-686 L359K/V379I): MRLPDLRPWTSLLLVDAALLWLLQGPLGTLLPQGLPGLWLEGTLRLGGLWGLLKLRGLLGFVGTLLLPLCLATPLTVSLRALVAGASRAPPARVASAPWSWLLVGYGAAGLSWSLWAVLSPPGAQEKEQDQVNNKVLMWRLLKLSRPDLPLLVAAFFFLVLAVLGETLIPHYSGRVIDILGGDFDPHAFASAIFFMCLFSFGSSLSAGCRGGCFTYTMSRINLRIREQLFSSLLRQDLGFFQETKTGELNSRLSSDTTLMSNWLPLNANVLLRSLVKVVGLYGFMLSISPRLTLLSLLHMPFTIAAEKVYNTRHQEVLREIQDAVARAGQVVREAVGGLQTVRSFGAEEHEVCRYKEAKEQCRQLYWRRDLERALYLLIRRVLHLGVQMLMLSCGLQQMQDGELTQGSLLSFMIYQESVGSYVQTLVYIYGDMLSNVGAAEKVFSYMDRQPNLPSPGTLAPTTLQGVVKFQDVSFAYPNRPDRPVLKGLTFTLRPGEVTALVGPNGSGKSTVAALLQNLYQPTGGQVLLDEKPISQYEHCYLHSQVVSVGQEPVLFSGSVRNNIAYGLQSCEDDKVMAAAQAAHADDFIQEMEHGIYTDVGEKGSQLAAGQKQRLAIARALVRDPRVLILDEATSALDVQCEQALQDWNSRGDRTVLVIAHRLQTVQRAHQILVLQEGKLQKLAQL
Protocol: as §1
Differential peptide selectivity of the TAP1/TAP2 and TAP1/TAP2iso heterodimers was further investigated by competition experiments with ^125 I-labeled Peptide […] (SEQ ID NO: 6) and various unlabeled peptides: Peptide […] […] The glycosylated peptides were recovered by Con A-Sepharose and quantitated. […]

[3] = target: T2, TAP1/TAP2iso heterodimer (Homo sapiens, UniProt Q03518+Q03519); assay: competition with transport of 125I-Peptide RRYQNSTEL in TAP1/TAP2iso transfectants; format: cell-based; settings: TAP1/TAP2iso transfectants
T2 construct: expressed in transfected cells
T2 sequence (Q03519 1-653 isoform Q03519-2 L359K/V379I): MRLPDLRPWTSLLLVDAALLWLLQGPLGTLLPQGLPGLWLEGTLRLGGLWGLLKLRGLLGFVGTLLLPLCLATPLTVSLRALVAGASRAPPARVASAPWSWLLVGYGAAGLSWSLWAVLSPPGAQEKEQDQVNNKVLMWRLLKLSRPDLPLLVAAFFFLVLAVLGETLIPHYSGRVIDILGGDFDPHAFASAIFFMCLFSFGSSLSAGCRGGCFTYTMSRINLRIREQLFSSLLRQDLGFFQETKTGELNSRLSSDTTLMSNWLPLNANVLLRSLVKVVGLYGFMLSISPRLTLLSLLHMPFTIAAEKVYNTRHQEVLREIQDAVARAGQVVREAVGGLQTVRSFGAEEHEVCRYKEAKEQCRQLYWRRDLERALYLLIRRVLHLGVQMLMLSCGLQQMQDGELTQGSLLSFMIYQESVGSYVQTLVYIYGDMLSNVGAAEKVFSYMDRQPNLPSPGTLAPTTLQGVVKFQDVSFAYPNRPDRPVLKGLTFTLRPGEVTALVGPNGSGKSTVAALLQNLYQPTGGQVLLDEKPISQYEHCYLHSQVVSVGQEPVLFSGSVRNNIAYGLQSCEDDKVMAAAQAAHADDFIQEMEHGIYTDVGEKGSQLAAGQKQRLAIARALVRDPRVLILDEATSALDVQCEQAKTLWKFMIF
T2 sequence (Q03518 1-748): T1 sequence (Q03518 1-748)
Protocol: as §1
Differential peptide selectivity of the TAP1/TAP2 and TAP1/TAP2iso heterodimers was further investigated by competition experiments with ^125 I-labeled Peptide […] (SEQ ID NO: 6) and various unlabeled peptides: Peptide […] (SEQ ID NO: 6); Peptide […] (SEQ ID NO: 7); Peptide […] (SEQ ID NO: 8); Peptide […] (SEQ ID NO: 9), the S1-24 fragment of human adrenocorticotropic hormone); and Peptide […] (SEQ ID NO: 10), residues 22 to 30 (human insulin B chain). The iodinated 9-mer Peptide […] was translocated in the presence of different concentrations of unlabeled competition peptides. The glycosylated peptides were recovered by Con A-Sepharose and quantitated. […] (self); (6B) competition of ^125 I-Peptide […] with Peptide […]; (6C) competition of ^125 I-Peptide […] with Peptide […]; and (6D) competition of ^125 I-Peptide […] with Peptide […]; and (6E) competition of ^125 I-Peptide […] with Peptide […].

[4] = system: T1 cells (naturally co-express both TAP2 and TAP2iso); settings: in words
[5] = system: HLA class I (A2) on T2 cells; assay: restoration of surface expression of HLA class I (A2) on transfected T2 cells, flow cytometry; format: cell-based, human; settings: T2 cells transfected with the named cDNAs
Protocol: Plasmid DNAs were prepared using MAXI-PREP kits (Qiagen). TAP1- and TAP2-deficient T2 cells (donated by P. Cresswell, Howard Hughes Medical Institute, Yale University) (1-2×10^7 cells/ml) were transfected by electroporation with 10 μg of TAP1 and TAP2 or TAP2iso linear plasmid DNA in a 0.4-cm cuvette at 260 V and 960 μF. Subcloning and selection of transfectants were performed by culturing in the presence of hygromycin (250 μg/ml) or histidinol ([…]) for the PREP 4 and PREP8 vectors, respectively.
Immune complexes were detected with fluorescein isothiocyanate-conjugated goat anti-mouse IgG antibodies (Coulter, Hialeah, Fla.) and an Epics Elite flow cytometer (Coulter).
T2 cells were transfected with TAP1 cDNA in combination with TAP2 or TAPiso cDNAs as described above.

[6] = system: HLA class I molecules in T2 cells; assay: HLA class I maturation, endo H sensitivity, pulse-chase in transfected T2 cells; format: cell-based, human; settings: expressed with TAP1 in T2 cells, relative to untransfected T2 cells
Text: A preferred method of measuring the rate at which MHC class I antigen complexes exit the ER is through the quantification of MHC class I proteins of the Golgi apparatus sensitive to endoglycosidase H (endo H). Glycosylation of MHC class I proteins in the Golgi apparatus results in an increase in their molecular mass and an increase in resistance of MHC class I-linked glycans to endo H. By [^35 S]methionine pulse-labeling TAP- or TAPiso-expressing cell cultures and chasing with unlabeled methionine at various times, the rate of MHC class I maturation in the ER can be gauged by observing differences in endo H sensitivity, e.g., compared with a TAP-deficient cell line such as T2.
High density cells (1×10^8 cells/ml) were labeled for 15 minutes in the presence of 500 μCi [^35 S]methionine (Amersham), and then chased at the indicated times in the presence of 10 mM unlabeled methionine.
Cells were lysed in an ice-cold lysis buffer, and lysates were incubated overnight at 4° C. with protein A Sepharose beads (Pharmacia) and normal rabbit serum (1:200 dilution). The beads were removed by centrifugation and the resulting supernatant was incubated for 12 hours at 4° C. with protein A beads and monoclonal antibody W6/32 (American Type Culture Collection (ATCC) accession no. HB 95), which recognizes HLA class I molecules. […]

[7] = target: T3, TAP1/TAP2 heterodimer (human); assay: cell-based or functional assay
T3 chain 1: T1 sequence (Q03518 1-748)
T3 chain 2: T1 sequence (Q03519 1-686 L359K/V379I)

[8] = target: T4, TAP1/TAP2iso heterodimer (human); assay: cell-based or functional assay
T4 chain 1: T1 sequence (Q03518 1-748)
T4 chain 2: T2 sequence (Q03519 1-653 isoform Q03519-2 L359K/V379I)

[9] = unlabeled peptide against transport of 125I-Peptide RRYQNSTEL, read-out: median inhibitory concentration (IC50)

RRYQNSTEL [Peptide RRYQNSTEL]
amount of translocated peptide, TAP1/TAP2iso compared with TAP1/TAP2 [1]: transported to similar extents; also recorded: translocated with equal efficiency
IC50 [2, 9]: ~0.15 µM
IC50 [3, 9]: ~0.15 µM
transportation of test peptides (relative IC50) [4]: equal efficiency

SYSMEHGRWGKPVGKKRRPVKVYP
inhibition of transport of Peptide RRYQNSTEL ([2]; in words): did not inhibit
inhibition of transport of Peptide RRYQNSTEL ([3]; in words): did not inhibit

B1: TAP2: previously known TAP2 subunit (clone 0121, TAP2 F allele) (protein)
chain: T1 sequence (Q03519 1-686 L359K/V379I)
Mean fluorescence of HLA class 1 (A2) Mean ± SD ([5]; four separate experiments, at least three stable clones): 6.11 ± 1.09
HLA class I maturation as reflected in decreasing endo H sensitivity [6]: increasing HLA class I maturation

B2: TAP2iso: TAP2 splice variant lacking exon 11 and containing exon 12; 653 amino acids (protein)
chain: T2 sequence (Q03519 1-653 isoform Q03519-2 L359K/V379I)
surface expression of HLA/MHC class I ([5]; in words): no effect
HLA class I maturation as reflected in decreasing endo H sensitivity [6]: increasing HLA class I maturation

RRYQNSTEL [unlabeled Peptide RRYQNSTEL]
IC50 of inhibition of transport of 125I-labeled Peptide … [7]: ~0.15 µM
IC50 of inhibition of transport of 125I-labeled Peptide … [8]: ~0.15 µM

RGFFYTPKA [Peptide RGFFYTPKA]
IC50 of inhibition of transport of 125I-labeled Peptide … [7]: 0.3 µM
IC50 of inhibition of transport of 125I-labeled Peptide … [8]: 0.11 µM
